Laboratory results as given in patent US9611465B2, “Pharmaceutical composition containing core factor involved in proliferation and differentiation of central nervous cell” (Celgene Corporation, priority 2009, dated 2017).
Where a SMILES comes first, the peptide text is derived from it. The star is where a group is joined. Cbz = O=C(OCc1ccccc1)*

Columns and labels:
[1] = target: T1, Ub/E1/E2 (GST fusion ubiquitin, Uba1, UbcH5b) (Homo sapiens, UniProt P0CG47+P22314+P62837); test: Ubiquitin ligase activity of CRBN using an in vitro reaction system; format: biochemical; settings: added to Uba1, UbcH5b and GST fusion ubiquitin; FIG. 4, lane 2
T1 construct: a recombinant GST fusion ubiquitin (Ub) protein
Procedure: This process was carried out basically in accordance with the method of Groisman et al. Firstly, CRBN and a binding protein (referred to as a CRBN complex) were purified from a cell lysate solution of mammalian cells expressing CRBN fused with a FLAG epitope tag using M2 FLAG agarose beads (SIGMA). Subsequently, the CRBN complex thus purified was mixed with an aqueous solution containing Uba1 (E1), UbcH5b (E2), and a recombinant GST fusion ubiquitin (Ub) protein, and after addition of ATP, the mixture was left to stand at 30 to 37° C. for two hours. Thereafter, the reaction was terminated by SDS, and self-ubiquitination and ubiquitination of the binding protein were visualized by polyacrylamide gel electrophoresis and immunoblotting, whereby the ubiquitin ligase activity was detected and measured.

[2] = test system: mammalian cells expressing CRBN fused with a FLAG epitope tag; test: CRBN ubiquitin ligase activity using live cells (self-ubiquitination, immunoblotting); format: cell-based; settings: MG132 added versus not added (FIG. 5)
Procedure: This process was carried out basically in accordance with the method of Ohtake et al. MG132, which is a proteasome inhibitor, was applied to mammalian cells expressing CRBN fused with a FLAG epitope tag, and the cells were left still. Subsequently, the cells were disrupted, and from the resulting cell lysate solution, FLAG was purified and CRBN was extracted, and then immunoblotting was performed under similar, but stricter, conditions to the above, whereby the self-ubiquitination was detected and measured.

zebrafish embryo brain = test: Determination of functional hierarchy of Lhx2 and CRBN (knockdown plus head-specific overexpression); format: in vivo
Procedure: (§1) The method of lipofection was entirely in accordance with the technique developed and published by Ando et al. (Ando and Okamoto, Efficient transfection strategy for the spatiotemporal control of gene expression in zebrafish. Mar. Biotechnol. 8(3): 295-303, 2006).
An aqueous solution of a 25-mer antisense morpholino oligonucleotide (AMO, Gene Tools, LLC) corresponding to the vicinity of the translation initiation codon in the cDNA sequence of the gene to be knocked down (700 ng/μl, injection conditions were the same as those used for RNA) was injected into the embryos at the 1-cell stage. The sequence of AMO used for crbn gene knockdown is 5′ […] 3′ (SEQ ID NO:1), and that used for lhx2 gene knockdown is 5′ […] 3′ (SEQ ID NO:2).
This process was carried out entirely in accordance with the technique of Ando et al. (H. Ando et al., Lhx2 mediates the activity of Six3 in zebrafish forebrain growth. Dev. Biol. 287(2): 456-468, 2005) except for the following procedure. […] When the effect of knocking down of A is rescued, whereas the effect of knocking down of B is not rescued by an inverted combination of A and B, within a 24-hour period after fertilization, it is determined that A lies functionally upstream of B. […]

[3] = test system: glia cells and serotonin-producing cells of zebrafish; test: Fluorescent staining of glia cells and serotonin-producing cells; format: in vivo; settings: CRBN-overexpressing individual
Procedure: Two-day-old zebrafish were used (for glia cell staining and serotonin-producing cell staining, zebrafish 56 hours and 49 hours after fertilization were used, respectively). Zebrafish were fixed with 4% paraformaldehyde (PFA) and then washed with phosphate buffer (PBS), followed by treatment with 10 μg/ml protease K for partial digestion of the epidermis. After the digestion reaction, the zebrafish were washed with PBST (PBS+0.5% Triton X-100) for 20 minutes and then fixed with PFA again. The fixed zebrafish were washed with PBST at room temperature for one hour, followed by blocking using PBST+5% goat serum. The resulting specimens were reacted with a monoclonal anti-glia antibody (zrf-1/zrf-2) or a rabbit anti-serotonin antibody at 4° C. overnight (12 to 18 hours). Subsequently, the specimens were washed with PBST+5% goat serum for one hour at room temperature, and secondary antibody reaction was carried out by substituting the antibody for a goat anti-mouse IgG antibody (Cy-2 conjugate for glia cell staining) or a goat anti-rabbit IgG antibody (Cy-5 conjugate for serotonin-producing cell staining) at 4° C. overnight (12 to 18 hours). Subsequently, the specimens were washed with PBST at room temperature for one hour. After washing, PBST was replaced by 30%, 50%, 70% glycerol/PBS and the whole zebrafish were mounted on glass slides to obtain preparations. Fluorescence was observed under excitation wavelength of Cy-2 and Cy-5 and the distribution of the glia cells or the serotonin-producing cells was recorded. It is to be noted that glia cells were observed from the lateral side of zebrafish, while the serotonin-producing cells were photographed from the dorsal side in order to observe the distribution of the cells along the midline.

[4] = test system: forebrain and midbrain of the zebrafish embryos; test: CRBN overexpression experiment in the forebrain and midbrain; format: in vivo
Procedure: Adult fish were reared at a constant temperature of 28.5° C. and maintained and bred under a diurnal cycle of 14 hours of light-on and 10 hours of light-off. Fertilized eggs were secured by natural mating between males and females, and an aqueous solution of 600 ng/μl capped RNA synthesized in vitro was injected into the cytoplasm of the embryos before the first cleavage (1-cell stage) under conditions of a nitrogen gas pressure of 30 psi and a valve opening time of 30 msec (millisecond). Because the expression of all the genes except the lhx2 gene (i.e., the crbn gene, the six3.2 gene, and a gene encoding a protein composing an E3 ubiquitin ligase complex with crbn) has little impact on the embryonic development, even when systemically expressed, this method was used to obtain the first data.
as §1
Antibody staining of early neurons of zebrafish was performed by the following technique. The embryos 24 to 28 hours after fertilization were fixed at 4° C. for 12 hours in a 4% paraformaldehyde/phosphate buffer (pH 8.0). […]

T1 sequence (P22314 whole entry, other chains not shown, the tested form may be a part): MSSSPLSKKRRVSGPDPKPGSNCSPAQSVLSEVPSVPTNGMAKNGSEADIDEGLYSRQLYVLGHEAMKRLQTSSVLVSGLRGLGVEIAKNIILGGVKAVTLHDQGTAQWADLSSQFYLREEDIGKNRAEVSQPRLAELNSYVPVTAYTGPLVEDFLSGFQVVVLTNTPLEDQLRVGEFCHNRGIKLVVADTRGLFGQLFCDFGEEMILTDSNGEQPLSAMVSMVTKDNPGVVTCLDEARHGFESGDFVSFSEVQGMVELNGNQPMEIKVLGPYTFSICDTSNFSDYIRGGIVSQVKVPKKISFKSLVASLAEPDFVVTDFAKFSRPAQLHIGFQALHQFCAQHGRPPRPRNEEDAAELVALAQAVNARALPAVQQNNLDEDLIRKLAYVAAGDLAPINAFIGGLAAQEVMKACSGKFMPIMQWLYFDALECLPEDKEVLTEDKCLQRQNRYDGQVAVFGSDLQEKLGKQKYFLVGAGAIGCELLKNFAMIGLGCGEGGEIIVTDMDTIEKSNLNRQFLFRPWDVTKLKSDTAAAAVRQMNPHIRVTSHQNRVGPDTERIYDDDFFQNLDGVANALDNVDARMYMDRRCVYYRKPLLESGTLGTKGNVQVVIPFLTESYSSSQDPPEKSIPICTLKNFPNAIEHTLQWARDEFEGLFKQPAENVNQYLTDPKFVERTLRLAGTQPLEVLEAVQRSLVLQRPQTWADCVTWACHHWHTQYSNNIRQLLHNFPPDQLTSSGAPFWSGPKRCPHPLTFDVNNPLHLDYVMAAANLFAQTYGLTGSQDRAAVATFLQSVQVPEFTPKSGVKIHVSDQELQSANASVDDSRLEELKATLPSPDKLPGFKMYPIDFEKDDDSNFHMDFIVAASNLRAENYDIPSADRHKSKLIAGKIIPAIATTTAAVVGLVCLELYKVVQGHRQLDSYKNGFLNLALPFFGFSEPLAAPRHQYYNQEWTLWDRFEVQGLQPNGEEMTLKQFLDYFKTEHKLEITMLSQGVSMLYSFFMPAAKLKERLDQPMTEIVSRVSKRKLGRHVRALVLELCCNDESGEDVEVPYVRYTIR
T1 sequence (P62837 whole entry, other chains not shown, the tested form may be a part): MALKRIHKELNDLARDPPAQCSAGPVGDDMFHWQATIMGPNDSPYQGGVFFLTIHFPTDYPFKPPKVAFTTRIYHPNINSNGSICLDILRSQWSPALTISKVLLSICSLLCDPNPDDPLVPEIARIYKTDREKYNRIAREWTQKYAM

FH-CRBN complex: CRBN fused with a FLAG epitope tag and binding proteins, purified from mammalian cell lysate with M2 FLAG agarose beads
detection of ubiquitinated proteins by immunoblotting [1]: proteins that would not be detected in the absence of addition of CRBN were detected

CC(C)C[C@@H](C=O)NC(=O)[C@H](CC(C)C)NC(=O)[C@H](CC(C)C)NC(=O)OCc1ccccc1 [MG132] (Cbz-Leu-Leu-Leu-aldehyde)
bands representing the CRBN-containing proteins (self-ubiquitination) [2]: a number of bands representing the CRBN-containing proteins were detected

B1: CRBN: protein called CRBN (cereblon) that forms a ubiquitin ligase complex; overexpressed in zebrafish embryos by injected or lipofected crbn RNA (protein, UniProt Q68EH9 1-431, looked up)
Protein cereblon: MGNQLQLLPENEEEEEDDMETEDRDGEDVEKPSIINFDTSLPTSHAYLGSDMEEFHGRTLHDEDSVQNLPVLPHVALILIPGQTLPLQLFRPQEVSMFRNLVSQDRTFAVLAHSPDPSGTETKAEFGTTAEIYAFREEQEYGIETVKIKAVGRQRFRVHDIRTQADGIRQAKVQILPERILPDPLCALQFLPRLHTHSPQTKHTQTTPPQKRCSQNYRQKKLHCASMTSWPPWVYSLYDSKTLMSRVKKQLHEWDENLKDESLPTNPTDFSYRVAACLPIDDALRLQLLKIGSAIQRLRCELDIMDRCTSLCCKQCQDTEITSKNEIFSLSLYGPMAAYVNPHGYVHETLTVYKASNLNLIGRPSTLHSWFPGYAWTIAQCRTCSSHMGWKFSAVKKDLSPPRFWGLTRSALLPTIPQGEEGVEGSRLLCL
brain size of embryo (zebrafish embryo brain; crbn gene-overexpressing embryo, compared to the normal embryo (FIG. 1, upper right)): brain enlargement | brain size of embryo (zebrafish embryo brain; lhx2 gene knocked down while crbn gene overexpressed (FIG. 1, lower right)): brain enlargement | spatial distribution of glia cells and serotonin-producing cells [3]: normal spatial distribution was maintained | serotonin-producing cells ([3]; 49 hours after fertilization (FIG. 7)): increased | glia cells ([3]; 56 hours after fertilization (FIG. 6)): increased | morphology of the neuron network in the brain ([4]; CRBN overexpression (FIG. 2, right)): morphologically normal | enlargement of forebrain and midbrain in volume ([4]; CRBN overexpression, shape retained (FIG. 2, right)): approximately 1.5 times
